In patent US20260193293A1, “PEPTIDES CAPABLE OF INHIBITING PROTEIN-PROTEIN INTERACTIONS AT GABAB1A SUBUNIT AND USES THEREOF” (UNIVERSITY OF COPENHAGEN, priority 2022, published 2026):
Starred links: 1 amine or outer side, 2 acyl side, 3 side chain; linkers in the order of their positions; H or OH if unused. Non-standard residues stand in square brackets, D forms with d. Tyr(Bzl) = Obtyr, O-benzyl-L-tyrosine, O=C([C@H](Cc1ccc(OCc2ccccc2)cc1)N[*:1])[*:2]; Tyr(Me) = Omtyr, O-methyl-L-tyrosine, COc1ccc(C[C@H](N[*:1])C(=O)[*:2])cc1; Obtyr = O-benzyl-L-tyrosine, O=C([C@H](Cc1ccc(OCc2ccccc2)cc1)N[*:1])[*:2]; Phe(4-tBu) = CC(C)(C)c1ccc(C[C@H](N)C(=O)O)cc1; Phe(4-NH2) = Nc1ccc(C[C@H](N)C(=O)O)cc1; Phe(4-F) = N[C@@H](Cc1ccc(F)cc1)C(=O)O; 1Nal = N[C@@H](Cc1cccc2ccccc12)C(=O)O; 2Nal = N[C@@H](Cc1ccc2ccccc2c1)C(=O)O; Cya = N[C@@H](CS(=O)(=O)O)C(=O)O; 3Pal = N[C@@H](Cc1cccnc1)C(=O)O; 4Pal = N[C@@H](Cc1ccncc1)C(=O)O

Each binder was assayed against Sushi domains (SD1/2) protein of GABAB1a (GB1a) (assay: FP competition vs TAMRA AJAP-1probe).
Sushi domains (SD1/2) protein of GABAB1a (GB1a), sequence (Q9Z0U4 29-158): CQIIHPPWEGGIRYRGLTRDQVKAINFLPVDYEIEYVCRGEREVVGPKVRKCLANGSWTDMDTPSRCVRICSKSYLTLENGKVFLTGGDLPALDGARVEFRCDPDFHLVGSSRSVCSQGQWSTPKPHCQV

Row | Binder | Ki
1 | Ac-EDDSDVW[Tyr(Bzl)]GGADTD-NH2 (SMILES CC(=O)N[C@@H](CCC(=O)O)C(=O)N[C@@H](CC(=O)O)C(=O)N[C@@H](CC(=O)O)C(=O)N[C@@H](CO)C(=O)N[C@@H](CC(=O)O)C(=O)N[C@H](C(=O)N[C@@H](Cc1c[nH]c2ccccc12)C(=O)N[C@@H](Cc1ccc(OCc2ccccc2)cc1)C(=O)NCC(=O)NCC(=O)N[C@@H](C)C(=O)N[C@@H](CC(=O)O)C(=O)N[C@H](C(=O)N[C@@H](CC(=O)O)C(N)=O)[C@@H](C)O)C(C)C) [EDDSDVW(Obtyr)GGADTD] | 3860 nM
2 | Ac-EDDS[3Pal]VWWGGADTD-NH2 (SMILES CC(=O)N[C@@H](CCC(=O)O)C(=O)N[C@@H](CC(=O)O)C(=O)N[C@@H](CC(=O)O)C(=O)N[C@@H](CO)C(=O)N[C@@H](Cc1cccnc1)C(=O)N[C@H](C(=O)N[C@@H](Cc1c[nH]c2ccccc12)C(=O)N[C@@H](Cc1c[nH]c2ccccc12)C(=O)NCC(=O)NCC(=O)N[C@@H](C)C(=O)N[C@@H](CC(=O)O)C(=O)N[C@H](C(=O)N[C@@H](CC(=O)O)C(N)=O)[C@@H](C)O)C(C)C) [EDDS(3Pal)…] | 373 nM
3 | Ac-EDDS[Phe(4-F)]VWWGGADTD-NH2 [EDDS(Fphe)…] | 117 nM
4 | Ac-EDDS[Phe(4-NH2)]VWWGGADTD-NH2 [EDDS(Aphe)…] | 184 nM
5 | Ac-EDDS[4Pal]VWWGGADTD-NH2 (SMILES CC(=O)N[C@@H](CCC(=O)O)C(=O)N[C@@H](CC(=O)O)C(=O)N[C@@H](CC(=O)O)C(=O)N[C@@H](CO)C(=O)N[C@@H](Cc1ccncc1)C(=O)N[C@H](C(=O)N[C@@H](Cc1c[nH]c2ccccc12)C(=O)N[C@@H](Cc1c[nH]c2ccccc12)C(=O)NCC(=O)NCC(=O)N[C@@H](C)C(=O)N[C@@H](CC(=O)O)C(=O)N[C@H](C(=O)N[C@@H](CC(=O)O)C(N)=O)[C@@H](C)O)C(C)C) [EDDS(4Pal)…] | 424 nM
6 | Ac-RRRR[2Nal]EDSDDYDDIDDDW-NH2 (SMILES CC[C@H](C)[C@H](NC(=O)[C@H](CC(=O)O)NC(=O)[C@H](CC(=O)O)NC(=O)[C@H](Cc1ccc(O)cc1)NC(=O)[C@H](CC(=O)O)NC(=O)[C@H](CC(=O)O)NC(=O)[C@H](CO)NC(=O)[C@H](CC(=O)O)NC(=O)[C@H](CCC(=O)O)NC(=O)[C@H](Cc1ccc2ccccc2c1)NC(=O)[C@H](CCCNC(=N)N)NC(=O)[C@H](CCCNC(=N)N)NC(=O)[C@H](CCCNC(=N)N)NC(=O)[C@H](CCCNC(=N)N)NC(C)=O)C(=O)N[C@@H](CC(=O)O)C(=O)N[C@@H](CC(=O)O)C(=O)N[C@@H](CC(=O)O)C(=O)N[C@@H](Cc1c[nH]c2ccccc12)C(N)=O) [RRRR(2Nala)…] | 143000 nM
7 | Ac-EDDS[Tyr(Me)]VWWGGADTD-NH2 (SMILES COc1ccc(C[C@H](NC(=O)[C@H](CO)NC(=O)[C@H](CC(=O)O)NC(=O)[C@H](CC(=O)O)NC(=O)[C@H](CCC(=O)O)NC(C)=O)C(=O)N[C@H](C(=O)N[C@@H](Cc2c[nH]c3ccccc23)C(=O)N[C@@H](Cc2c[nH]c3ccccc23)C(=O)NCC(=O)NCC(=O)N[C@@H](C)C(=O)N[C@@H](CC(=O)O)C(=O)N[C@H](C(=O)N[C@@H](CC(=O)O)C(N)=O)[C@@H](C)O)C(C)C)cc1) [EDDS(Omtyr)…] | 101 nM
8 | Ac-EDDSDVW[1Nal]GGADTD-NH2 (SMILES CC(=O)N[C@@H](CCC(=O)O)C(=O)N[C@@H](CC(=O)O)C(=O)N[C@@H](CC(=O)O)C(=O)N[C@@H](CO)C(=O)N[C@@H](CC(=O)O)C(=O)N[C@H](C(=O)N[C@@H](Cc1c[nH]c2ccccc12)C(=O)N[C@@H](Cc1cccc2ccccc12)C(=O)NCC(=O)NCC(=O)N[C@@H](C)C(=O)N[C@@H](CC(=O)O)C(=O)N[C@H](C(=O)N[C@@H](CC(=O)O)C(N)=O)[C@@H](C)O)C(C)C) [EDDSDVW(1Nala)GGADTD] | 499 nM
9 | Ac-EDDSDVW[2Nal]GGADTD-NH2 (SMILES CC(=O)N[C@@H](CCC(=O)O)C(=O)N[C@@H](CC(=O)O)C(=O)N[C@@H](CC(=O)O)C(=O)N[C@@H](CO)C(=O)N[C@@H](CC(=O)O)C(=O)N[C@H](C(=O)N[C@@H](Cc1c[nH]c2ccccc12)C(=O)N[C@@H](Cc1ccc2ccccc2c1)C(=O)NCC(=O)NCC(=O)N[C@@H](C)C(=O)N[C@@H](CC(=O)O)C(=O)N[C@H](C(=O)N[C@@H](CC(=O)O)C(N)=O)[C@@H](C)O)C(C)C) [EDDSDVW(2Nala)GGADTD] | 814 nM
10 | Ac-EDDS[Phe(4-tBu)]VWWGGADTD-NH2 [EDDS(Buphe)…] | 269 nM
11 | Ac-[2Nal]EDSDDYDDIDDDW-NH2 (SMILES CC[C@H](C)[C@H](NC(=O)[C@H](CC(=O)O)NC(=O)[C@H](CC(=O)O)NC(=O)[C@H](Cc1ccc(O)cc1)NC(=O)[C@H](CC(=O)O)NC(=O)[C@H](CC(=O)O)NC(=O)[C@H](CO)NC(=O)[C@H](CC(=O)O)NC(=O)[C@H](CCC(=O)O)NC(=O)[C@H](Cc1ccc2ccccc2c1)NC(C)=O)C(=O)N[C@@H](CC(=O)O)C(=O)N[C@@H](CC(=O)O)C(=O)N[C@@H](CC(=O)O)C(=O)N[C@@H](Cc1c[nH]c2ccccc12)C(N)=O) [Scr-20] | 31200 nM

These reach a lower Ki. Values come first.

Row | Ki | Binder
12 | 5.3 nM | Ac-EDDD[2Nal]IDWGPTSDDD-NH2 (SMILES CC[C@H](C)[C@H](NC(=O)[C@H](Cc1ccc2ccccc2c1)NC(=O)[C@H](CC(=O)O)NC(=O)[C@H](CC(=O)O)NC(=O)[C@H](CC(=O)O)NC(=O)[C@H](CCC(=O)O)NC(C)=O)C(=O)N[C@@H](CC(=O)O)C(=O)N[C@@H](Cc1c[nH]c2ccccc12)C(=O)NCC(=O)N1CCC[C@H]1C(=O)N[C@H](C(=O)N[C@@H](CO)C(=O)N[C@@H](CC(=O)O)C(=O)N[C@@H](CC(=O)O)C(=O)N[C@@H](CC(=O)O)C(N)=O)[C@@H](C)O) [peptide 21]
13 | 15 nM | Ac-RRRREDDD[2Nal]IDWYDSDDD-NH2 (SMILES CC[C@H](C)[C@H](NC(=O)[C@H](Cc1ccc2ccccc2c1)NC(=O)[C@H](CC(=O)O)NC(=O)[C@H](CC(=O)O)NC(=O)[C@H](CC(=O)O)NC(=O)[C@H](CCC(=O)O)NC(=O)[C@H](CCCNC(=N)N)NC(=O)[C@H](CCCNC(=N)N)NC(=O)[C@H](CCCNC(=N)N)NC(=O)[C@H](CCCNC(=N)N)NC(C)=O)C(=O)N[C@@H](CC(=O)O)C(=O)N[C@@H](Cc1c[nH]c2ccccc12)C(=O)N[C@@H](Cc1ccc(O)cc1)C(=O)N[C@@H](CC(=O)O)C(=O)N[C@@H](CO)C(=O)N[C@@H](CC(=O)O)C(=O)N[C@@H](CC(=O)O)C(=O)N[C@@H](CC(=O)O)C(N)=O) [R4-20]
14 | 9.3 nM | Ac-EDDD[Obtyr]IDWYDSDDD-NH2 (SMILES CC[C@H](C)[C@H](NC(=O)[C@H](Cc1ccc(OCc2ccccc2)cc1)NC(=O)[C@H](CC(=O)O)NC(=O)[C@H](CC(=O)O)NC(=O)[C@H](CC(=O)O)NC(=O)[C@H](CCC(=O)O)NC(C)=O)C(=O)N[C@@H](CC(=O)O)C(=O)N[C@@H](Cc1c[nH]c2ccccc12)C(=O)N[C@@H](Cc1ccc(O)cc1)C(=O)N[C@@H](CC(=O)O)C(=O)N[C@@H](CO)C(=O)N[C@@H](CC(=O)O)C(=O)N[C@@H](CC(=O)O)C(=O)N[C@@H](CC(=O)O)C(N)=O) [peptide 33]
15 | 12 nM | Ac-ETEFI[Cya]WGPTGDED-NH2 (SMILES CC[C@H](C)[C@H](NC(=O)[C@H](Cc1ccccc1)NC(=O)[C@H](CCC(=O)O)NC(=O)[C@@H](NC(=O)[C@H](CCC(=O)O)NC(C)=O)[C@@H](C)O)C(=O)N[C@@H](CS(=O)(=O)O)C(=O)N[C@@H](Cc1c[nH]c2ccccc12)C(=O)NCC(=O)N1CCC[C@H]1C(=O)N[C@H](C(=O)NCC(=O)N[C@@H](CC(=O)O)C(=O)N[C@@H](CCC(=O)O)C(=O)N[C@@H](CC(=O)O)C(N)=O)[C@@H](C)O) [ETEFI(Cya)WGPTGDED]
16 | 13 nM | Ac-RRRREDDD[2Nal]IDWGPTSDDD-NH2 (SMILES CC[C@H](C)[C@H](NC(=O)[C@H](Cc1ccc2ccccc2c1)NC(=O)[C@H](CC(=O)O)NC(=O)[C@H](CC(=O)O)NC(=O)[C@H](CC(=O)O)NC(=O)[C@H](CCC(=O)O)NC(=O)[C@H](CCCNC(=N)N)NC(=O)[C@H](CCCNC(=N)N)NC(=O)[C@H](CCCNC(=N)N)NC(=O)[C@H](CCCNC(=N)N)NC(C)=O)C(=O)N[C@@H](CC(=O)O)C(=O)N[C@@H](Cc1c[nH]c2ccccc12)C(=O)NCC(=O)N1CCC[C@H]1C(=O)N[C@H](C(=O)N[C@@H](CO)C(=O)N[C@@H](CC(=O)O)C(=O)N[C@@H](CC(=O)O)C(=O)N[C@@H](CC(=O)O)C(N)=O)[C@@H](C)O) [R4-21]
17 | 69 nM | Ac-EDDS[1Nal]VWWGGADTD-NH2 (SMILES CC(=O)N[C@@H](CCC(=O)O)C(=O)N[C@@H](CC(=O)O)C(=O)N[C@@H](CC(=O)O)C(=O)N[C@@H](CO)C(=O)N[C@@H](Cc1cccc2ccccc12)C(=O)N[C@H](C(=O)N[C@@H](Cc1c[nH]c2ccccc12)C(=O)N[C@@H](Cc1c[nH]c2ccccc12)C(=O)NCC(=O)NCC(=O)N[C@@H](C)C(=O)N[C@@H](CC(=O)O)C(=O)N[C@H](C(=O)N[C@@H](CC(=O)O)C(N)=O)[C@@H](C)O)C(C)C) [EDDS(1Nala)…]
18 | 9.5 nM | Ac-EDDD[Obtyr]IDWGPTSDDD-NH2 (SMILES CC[C@H](C)[C@H](NC(=O)[C@H](Cc1ccc(OCc2ccccc2)cc1)NC(=O)[C@H](CC(=O)O)NC(=O)[C@H](CC(=O)O)NC(=O)[C@H](CC(=O)O)NC(=O)[C@H](CCC(=O)O)NC(C)=O)C(=O)N[C@@H](CC(=O)O)C(=O)N[C@@H](Cc1c[nH]c2ccccc12)C(=O)NCC(=O)N1CCC[C@H]1C(=O)N[C@H](C(=O)N[C@@H](CO)C(=O)N[C@@H](CC(=O)O)C(=O)N[C@@H](CC(=O)O)C(=O)N[C@@H](CC(=O)O)C(N)=O)[C@@H](C)O) [peptide 35]
19 | 1.5 nM | EDDDAIDWYDSDDD (N-terminal acetyl; C-terminal amide; 2Nala (3-(2-naphthyl)-L-alanine) at position 5) [peptide 20]
